Data taken from paper PMC4402530, “Unwinding forward and sliding back: an intermittent unwinding mode of the BLM helicase”.

B1: F18 ssDNA (18 nt) (ssDNA)
DNA: GCCTCGCTGCCGTCGCCA
B2: F18/F18 bis dsDNA (18 bp) (dsDNA)
DNA 1: GCCTCGCTGCCGTCGCCA
DNA 2: TGGCGACGGCAGCGAGGC

Legend:
Assay in all cases: fluorescence anisotropy; 1 mM MgCl2, no ATP listed; 25 mM Tris-HCl pH 7.5 (last digit split in text), 100 mM NaCl, 1 mM MgCl2, 3 mM DTT, 5 nM DNA, 25 C, 5 min equilibration; Hill fit
Conditions in all cases: protein: recombinant
[1] = target: BLM642-1290 T1110G (human, UniProt P54132 642-1290, T1110G)
BLM642-1290 T1110G, sequence (P54132 642-1290 T1110G): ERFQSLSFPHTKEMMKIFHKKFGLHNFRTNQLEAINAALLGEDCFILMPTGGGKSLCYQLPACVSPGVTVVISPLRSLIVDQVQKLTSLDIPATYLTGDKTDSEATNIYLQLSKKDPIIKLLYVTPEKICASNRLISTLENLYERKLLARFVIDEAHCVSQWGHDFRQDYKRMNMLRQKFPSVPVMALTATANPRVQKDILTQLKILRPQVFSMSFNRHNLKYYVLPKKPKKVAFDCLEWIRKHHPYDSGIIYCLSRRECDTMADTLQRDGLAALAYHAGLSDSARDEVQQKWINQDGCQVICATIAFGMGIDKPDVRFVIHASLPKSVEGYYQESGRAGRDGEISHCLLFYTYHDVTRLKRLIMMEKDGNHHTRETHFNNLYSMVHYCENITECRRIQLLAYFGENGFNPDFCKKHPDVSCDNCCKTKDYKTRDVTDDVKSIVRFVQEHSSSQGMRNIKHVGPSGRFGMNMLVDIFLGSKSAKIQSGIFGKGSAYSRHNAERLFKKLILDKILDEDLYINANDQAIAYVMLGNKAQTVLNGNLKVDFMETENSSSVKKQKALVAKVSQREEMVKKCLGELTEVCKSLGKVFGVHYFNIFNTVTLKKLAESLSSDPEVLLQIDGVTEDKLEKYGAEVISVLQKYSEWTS

[2] = target: BLM642-1290 K1125A (human, UniProt P54132 642-1290, K1125A)
BLM642-1290 K1125A, sequence (P54132 642-1290 K1125A): as the sequence (P54132 642-1290 T1110G) above, with G469T, K484A counted along it

[3] = target: BLM642-1290 helicase core, wild type (human, UniProt P54132 642-1290)
BLM642-1290 helicase core, wild type, sequence (P54132 642-1290): as the sequence (P54132 642-1290 T1110G) above, with G469T counted along it

[4] = target: BLM642-1290 S1121A (human, UniProt P54132 642-1290, S1121A)
BLM642-1290 S1121A, sequence (P54132 642-1290 S1121A): as the sequence (P54132 642-1290 T1110G) above, with G469T, S480A counted along it

[5] = label: 3' fluorescein on F18, blunt

Binder | Kd ([1]; label: 3' fluorescein) | Kd ([2]; label: 3' fluorescein) | Kd ([3]; label: 3' fluorescein) | Kd ([4]; label: 3' fluorescein) | Kd [1, 5] | Kd [2, 5] | Kd [3, 5] | Kd [4, 5]
B1 | 29.7 ± 3.6 nM | 21.3 ± 2.9 nM | 17.2 ± 1.6 nM | 27.1 ± 3.7 nM |  |  |  | 
B2 |  |  |  |  | 78.2 ± 7.2 nM | 28.6 ± 2.6 nM | 4.6 ± 0.5 nM | 14.9 ± 1.7 nM
